According to article PMC2488374, “Study of a Synthetic Human Olfactory Receptor 17-4: Expression and Purification from an Inducible Mammalian Cell Line” (PLoS ONE, 2008):

Molecular target: the molecule itself
Test: SEC; immunoaffinity-purified hOR17-4 at 0.75 mg/ml on HiLoad 16/60 Superdex 200 in PBS + 0.2% w/v fos-choline-14, 1 ml/min; peak fractions analysed by SDS-PAGE and SYPRO-Ruby staining

B1: human olfactory receptor 17-4 with C-terminal GlyGly linker and rho1D4 tag (hOR17-4-GlyGly-rho1D4) (receptor, UniProt P34982 1-312, looked up)
chain: MDGGNQSEGSEFLLLGMSESPEQQRILFWMFLSMYLVTVVGNVLIILAISSDSRLHTPVYFFLANLSFTDLFFVTNTIPKMLVNLQSHNKAISYAGCLTQLYFLVSLVALDNLILAVMAYDRYVAICCPLHYTTAMSPKLCILLLSLCWVLSVLYGLIHTLLMTRVTFCGSRKIHYIFCEMYVLLRMACSNIQINHTVLIATGCFIFLIPFGFVIISYVLIIRAILRIPSVSKKYKAFSTCASHLGAVSLFYGTLCMVYLKPLHTYSVKDSVATVMYAVVTPMMNPFIYSLRNKDMHGALGRLLDKHFKRLT
notes: human olfactory receptor 17-4 (OR1D2), wild type, 312 amino acids; with GlyGly linker and rho1D4 tag the construct has 323 amino acids; Synthetic, human codon-optimised gene in pcDNA4/To; also called OR1D2; hOR17-4-rho
stoichiometry N: 2
